Experimental data reported in patent US20150266974A1 (RINAT NEUROSCIENCE, published 2015).

Experiments:
[1] = target: T1, human IgE-Fc (Ch2-Ch3-Ch4), minimally biotinylated (human, UniProt P01854-1 105-428, limits assumed, minimally biotinylated with EZ-Link NHS-LC-LC-biotin (sites not given)); assay: SPR Biacore T200, KD at pH 6.0 over KD at pH 7.4
T1 construct: domain: Ch2-Ch3-Ch4; Captured on NeutrAvidin chip; also called IgE construct; B-IgE
Method: (§1) All Biacore experiments were performed using two of the four flow cells (1&2 or 3&4) of the sensor chip in parallel. The downstream flow cell was used as analysis flow cell while the other flow cell was used as a reference surface. Thus, biotinylated IgE (B-IgE) was captured on the analysis flow cell and every purified Fab fragment was injected over both. The sensorgram from the reference flow cell was subtracted from that of the analysis flow cell.
(§2) Following capture of B-IgE, a purified Fab fragment was injected at 30 μL/min on analysis and reference flow cells in a series of injections from low to high concentration. The top concentration of Fab ranged from 30 nM to 200 nM and the dilution factor was 3-fold. Each Fab dilution was injected for 2 minutes, followed by a final dissociation time of 30 minutes after the last injection. A similar set of injections was performed with running buffer in place of Fab for double-referencing purposes (double-referencing as described in Myszka, J Mol Recognit 12: 279-284, 1999). The double-referenced sensorgrams were fit globally to a simple 1:1 Langmuir with mass transport binding model.
(§3) The experiments were performed at pH 6.0 and 7.4 using sample and running buffers of 10 mM Sodium Phosphate, 150 mM Sodium Chloride, 0.05% Tween-20, 1 mg/mL BSA, pH 6 and 10 mM Sodium Phosphate, 150 mM Sodium Chloride, 0.05% Tween-20, 1 mg/mL BSA, pH 7.4, respectively.

[2] = target: T1, human IgE-Fc (Ch2-Ch3-Ch4), minimally …; assay: SPR Biacore T200, kd at pH 6.0 over kd at pH 7.4
Method: (§4) A biotin-capture surface was prepared by immobilization of NeutrAvidin: all flow cells of a Biacore CM4 sensor chip were activated with a 1:1 (v/v) mixture of 400 mM EDC and 100 mM NHS for 7 minutes, at a flow rate of 10 μL/min. NeutrAvidin (Pierce, product #: 31000) was diluted to 100 μg/mL in 10 mM Sodium Acetate pH 4.5 and injected on all flow cells for 7 minutes at 20 μL/min. All flow cells were blocked with 100 mM Ethylenediamine in 150 mM Borate buffer pH 8.5 for 7 minutes at 10 μL/min.
as §2, §3

[3] = target: T1, human IgE-Fc (Ch2-Ch3-Ch4), minimally …; assay: SPR Biacore T200, biotin-IgE-Fc captured, Fab injected, 25 C, pH 6.0
Method: as §4, §2, §3

[4] = target: T1, human IgE-Fc (Ch2-Ch3-Ch4), minimally …; assay: SPR Biacore T200, biotin-IgE-Fc captured, Fab injected, 25 C, pH 7.4
Method: as §1, §2, §3

[5] = target: T2, PCSK9 (species not stated, Table 7 assay) (Pan troglodytes (Chimpanzee); Homo …, UniProt A8T644 31-152; Q8NBP7 153-692); assay: SPR Biacore 2000, IgG on anti-human Fc, PCSK9 injected, pH 6.0
T2 construct: kept apart from m1 and m2
T2 sequence (A8T644 31-152 limits assumed, chain 1 of 2): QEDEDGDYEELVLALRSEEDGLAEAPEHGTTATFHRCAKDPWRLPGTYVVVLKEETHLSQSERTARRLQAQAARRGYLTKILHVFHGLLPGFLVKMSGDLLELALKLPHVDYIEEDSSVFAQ
T2 sequence (A8T644 other isoform, or with tags, fused parts or gaps limits assumed, chain 2 of 2): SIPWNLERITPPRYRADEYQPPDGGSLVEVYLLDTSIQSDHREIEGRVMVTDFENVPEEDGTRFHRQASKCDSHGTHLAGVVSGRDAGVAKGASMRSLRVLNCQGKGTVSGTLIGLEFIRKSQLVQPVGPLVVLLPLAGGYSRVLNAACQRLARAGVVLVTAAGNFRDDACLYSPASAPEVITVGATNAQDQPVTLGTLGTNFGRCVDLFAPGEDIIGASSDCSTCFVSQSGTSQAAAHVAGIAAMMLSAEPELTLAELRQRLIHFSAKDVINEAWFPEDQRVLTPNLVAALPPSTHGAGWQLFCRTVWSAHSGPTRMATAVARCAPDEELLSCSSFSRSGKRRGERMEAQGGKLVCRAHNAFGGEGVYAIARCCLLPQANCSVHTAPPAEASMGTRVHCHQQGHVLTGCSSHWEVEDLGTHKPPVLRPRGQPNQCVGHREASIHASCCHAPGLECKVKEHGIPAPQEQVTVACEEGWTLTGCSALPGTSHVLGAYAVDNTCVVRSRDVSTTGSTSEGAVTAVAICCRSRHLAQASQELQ
Method: (§5) Affinity and kinetic parameters for PCSK9 antibodies h5A10 and 5L1721H23_{—}6L3H3 as well as PCSK9 antibody H1M300N (see US2010/0166768, e.g., at Table 7). All experiments were performed on a Biacore 2000 biosensor.
(§6) An anti-human Fc sensor chip was prepared by activating all flow cells of a Biacore CM4 sensor chip with a 1:1 (v/v) mixture of 400 mM EDC and 100 mM NHS for 7 minutes, at a flow rate of 10 μL/min. An anti-human Fc reagent (Goat F(AB′)2 Fragment to Human IgG Fc, Cappel Catalog #: 55053) was diluted to 60 μg/mL in 10 mM Sodium Acetate pH 5.0 and injected on all flow cells for 7 minutes at 20 μL/min. All flow cells were blocked with 100 mM ethylenediamine in 150 mM Borate buffer pH 8.5 for 7 minutes at 10 μL/min.
(§7) The experiments were performed at pH 6.0 and 7.4 using sample and running buffers of 10 mM Sodium Phosphate, 150 mM Sodium Chloride, 0.05% Tween-20, pH 6 and 10 mM Sodium Phosphate, 150 mM Sodium Chloride, 0.05% Tween-20, pH 7.4, respectively.

[6] = target: T2, PCSK9 (species not stated, Table 7 …); assay: SPR Biacore 2000, IgG on anti-human Fc, PCSK9 injected, pH 7.4
Method: as §5, §6, §7

T1 sequence (P01854 other isoform, or with tags, fused parts or gaps limits assumed): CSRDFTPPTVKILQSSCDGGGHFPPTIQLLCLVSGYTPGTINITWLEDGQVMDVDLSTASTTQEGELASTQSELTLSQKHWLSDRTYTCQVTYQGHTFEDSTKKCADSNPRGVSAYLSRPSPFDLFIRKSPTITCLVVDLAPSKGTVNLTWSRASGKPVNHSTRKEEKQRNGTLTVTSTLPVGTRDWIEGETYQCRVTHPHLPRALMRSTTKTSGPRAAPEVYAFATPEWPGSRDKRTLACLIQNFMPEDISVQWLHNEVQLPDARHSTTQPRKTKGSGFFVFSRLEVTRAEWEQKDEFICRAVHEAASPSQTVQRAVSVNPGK

| KD ratio pH 6.0/pH 7.4 [1] | kd ratio pH 6/pH 7.4 [2] | Kd [3] | koff [3] | kon [3] | Kd [4] | koff [4] | kon [4] | Kd [5] | koff [5] | kon [5] | t1/2 [5] | Kd [6] | koff [6] | kon [6] | t1/2 [6] | Binder |
| --- | --- | --- | --- | --- | --- | --- | --- | --- | --- | --- | --- | --- | --- | --- | --- | --- |
| 3.1 | 3.03 | 0.149 nM | 0.000152 s⁻¹ | 1.02e+06 M⁻¹ s⁻¹ | 0.0487 nM | 5.01e-05 s⁻¹ | 1.03e+06 M⁻¹ s⁻¹ |  |  |  |  |  |  |  |  | anti-IgE antibody 5.948-H100Y (Fab) (Fab, V domains shown, Injected as purified Fab fragment) VH: QVQLVQSGAEVKKPGASVKVSCKASGYTFTSYDINWVRQATGQGLEWMGWMDPNSGNTGYAQKFQGRVTMTRNTSISTAYMELSSLRSEDTAVYYCARGYYDSDGYYSFSGMDVWGQGTTVTVSS VL: not shown |
| 8.6 | 8.63 | 16.3 nM | 0.00364 s⁻¹ | 223000 M⁻¹ s⁻¹ | 1.9 nM | 0.000422 s⁻¹ | 222000 M⁻¹ s⁻¹ |  |  |  |  |  |  |  |  | H17H25H100Y (Fab) (Fab, V domains shown) VH: QVQLVQSGAEVKKPGASVKVSCKASGYTFTSHDINWVRQATGQGLEWMGWMDPHSGNTGYAQKFQGRVTMTRNTSISTAYMELSSLRSEDTAVYYCARGYYDSDGYYSFSGMDVWGQGTTVTVSS VL: not shown |
| 8 | 7.66 | 5.08 nM | 0.00151 s⁻¹ | 298000 M⁻¹ s⁻¹ | 0.634 nM | 0.000197 s⁻¹ | 311000 M⁻¹ s⁻¹ |  |  |  |  |  |  |  |  | H25H100Y (Fab) (Fab, V domains shown) VH: QVQLVQSGAEVKKPGASVKVSCKASGYTFTSYDINWVRQATGQGLEWMGWMDPHSGNTGYAQKFQGRVTMTRNTSISTAYMELSSLRSEDTAVYYCARGYYDSDGYYSFSGMDVWGQGTTVTVSS VL: not shown |
| 7 | 11.3 | 37.1 nM | 0.0122 s⁻¹ | 329000 M⁻¹ s⁻¹ | 5.33 nM | 0.00108 s⁻¹ | 202000 M⁻¹ s⁻¹ |  |  |  |  |  |  |  |  | L38H312H100Y (Fab) (Fab, V domains shown) VH: QVQLVQSGAEVKKPGASVKVSCKASGYTFTSYDINWVRQATGQGLEWMGWMDPNSGNTGYAQKFQGRVTMTRNTSISTAYMELSSLRSEDTAVYYCARGYYDSDGYYSFHGMDVWGQGTTVTVSS VL: not shown |
|  |  |  |  |  |  |  |  | < 0.181 nM | < 6e-05 s⁻¹ | 331000 M⁻¹ s⁻¹ | < 3.22 h | < 0.249 nM | < 6e-05 s⁻¹ | 241000 M⁻¹ s⁻¹ | < 3.22 h | h5A10 (antibody, V domains shown, In the histidine scan it was used as a Fab with a histidine tag at the C-terminus of CH1; also called 5A10 hu frame) VH: QVQLVQSGAEVKKPGASVKVSCKASGYTFTSYYMHWVRQAPGQGLEWMGEINPSGGRTNYNEKFKSRVTMTRDTSTSTVYMELSSLRSEDTAVYYCARERPLYAMDYWGQGTTVTVSS VL: DIQMTQSPSSLSASVGDRVTITCKASQDVSTAVAWYQQKPGKAPKLLIYSASYRYTGVPSRFSGSGSGTDFTFTISSLQPEDIATYYCQQRYSTPRTFGQGTKLEIK |
